Here are results for 167 variants from the RNAGym collection of RNA variant scans (doi:10.7554/elife.80360).

B1: Twister Ribozyme (parent)
chain: AACACUGCCAAUGCCGGUCCCAAGCCCGGAUAAAAGUGGAGGGGGCGG

The series covers variants of B1. Briefly: self-cleavage, relative activity (ratio to wild type); higher = more cleavage; co-transcriptional.
In the case of C9U U37A, the self-cleavage is 0.26.

For the variant C21G A34G, the self-cleavage was determined as 0.0977.

Consider C26A A32C, for which the self-cleavage was found to be 0.575.

As to U37G G48U, the self-cleavage amounted to 0.856.

Turning to C21G G44U, the self-cleavage worked out at 0.102.

Turning to A1U G39C, the self-cleavage is 0.0764.

For the variant G28U U37C, the self-cleavage was 0.431.

With G16U C20G, the self-cleavage turned out to be 0.098.

In the case of G39A G41U, the self-cleavage was determined as 0.125.

In the case of U18G G38C, the self-cleavage was found to be 0.102.

For A11G G29U, the self-cleavage was found to be 0.762.

For G28U G41C, the self-cleavage worked out at 0.263.

C21A G48U: the self-cleavage turned out to be 0.154.

Regarding G7C U31C, the self-cleavage was found to be 0.0704.

Take U18G U37C: the self-cleavage was 0.0884.

Take C3G C14A: the self-cleavage came to 0.418.

With C3G C14U, the self-cleavage is 0.47.

Turning to A22G G43U, the self-cleavage was found to be 0.101.

As to C3G G17A, the self-cleavage is 0.213.

As for C3G A4G, the self-cleavage stood at 0.462.

As for C3G A4C, the self-cleavage came out at 0.114.

Consider A2C G43A, for which the self-cleavage worked out at 0.1.

A23U G24C: the self-cleavage turned out to be 0.109.

Turning to C9G G39A, the self-cleavage worked out at 0.137.

For G28U A33C, the self-cleavage came to 0.838.

Turning to A1C G44C, the self-cleavage was 0.162.

For C9G C21A, the self-cleavage is 0.0451.

G36U G48U: the self-cleavage is 0.454.

For C20G A35C, the self-cleavage came out at 0.14.

Turning to C46A G47C, the self-cleavage is 0.952.

With A4G U6A, the self-cleavage came to 0.866.

Turning to A11C C21G, the self-cleavage worked out at 0.118.

For A10U A33G, the self-cleavage turned out to be 0.825.

For the variant U37G G42A, the self-cleavage is 0.171.

With A4U C14G, the self-cleavage came to 0.0594.

As to C21U G42U, the self-cleavage is 0.0927.

Consider C9A G17A, for which the self-cleavage is 0.109.

On to C27U G28C, for which the self-cleavage worked out at 0.568.

With C27U G28U, the self-cleavage was 0.501.

Consider A32U A35C, for which the self-cleavage was found to be 1.01.

For the variant G17U C21G, the self-cleavage came out at 0.064.

C3U C5A: the self-cleavage amounted to 0.219.

For A11C C27G, the self-cleavage was determined as 0.0803.

As for G41A G45A, the self-cleavage was determined as 0.588.

For G24A C46A, the self-cleavage was determined as 0.0898.

Regarding C3A G45C, the self-cleavage was 0.0823.

For the variant C5U U18A, the self-cleavage turned out to be 0.186.

For the variant A1G G44U, the self-cleavage turned out to be 0.287.

With C14G A22U, the self-cleavage amounted to 0.128.

As to U18G C20A, the self-cleavage was found to be 0.057.

Take A30G C46G: the self-cleavage is 0.964.

With C5G C9U, the self-cleavage was 0.13.

On to C5G C14A, for which the self-cleavage amounted to 0.557.

On to C9A G43C, for which the self-cleavage turned out to be 0.0978.

As to U6G A10C, the self-cleavage is 0.136.

Regarding A1G U6C, the self-cleavage is 0.202.

With C14U G24C, the self-cleavage was found to be 0.102.

Regarding A23G U37A, the self-cleavage was determined as 0.111.

For A1G A32C, the self-cleavage worked out at 0.497.

On to A2U U12A, for which the self-cleavage came out at 0.667.

As for G13U G42U, the self-cleavage is 0.114.

As for A30C U31C, the self-cleavage was 0.841.

For C27G G47A, the self-cleavage amounted to 0.0917.

For A1C A23C, the self-cleavage was 0.12.

Turning to A10C C46A, the self-cleavage worked out at 0.898.

Consider A2G C15G, for which the self-cleavage was 0.0529.

On to G24U A32C, for which the self-cleavage stood at 0.113.

For U18C G43U, the self-cleavage amounted to 0.111.

As to C5U G45C, the self-cleavage was found to be 0.239.

With A32C G38U, the self-cleavage amounted to 0.723.

Consider A22G G28U, for which the self-cleavage worked out at 0.197.

Take C8U G24U: the self-cleavage turned out to be 0.177.

For the variant G13A A22C, the self-cleavage turned out to be 1.05.

Regarding C8G C9A, the self-cleavage worked out at 0.0971.

U12G C26G: the self-cleavage worked out at 0.451.

In the case of G16A G42A, the self-cleavage was 0.358.

A35G G38C: the self-cleavage stood at 0.632.

Take C27U U31A: the self-cleavage came to 0.792.

For C25U A32U, the self-cleavage was 0.799.

In the case of C5U U12C, the self-cleavage was found to be 0.769.

Take C21U G43A: the self-cleavage stood at 0.08.

Turning to C3G C27A, the self-cleavage is 0.0737.

Turning to G7C C21A, the self-cleavage is 0.0462.

As to C26U G48C, the self-cleavage is 0.301.

Take C19A A30G: the self-cleavage worked out at 0.444.

C21A C26A: the self-cleavage was determined as 0.069.

For A4U A33G, the self-cleavage amounted to 0.0639.

Take C20U G48U: the self-cleavage was determined as 0.963.

With C14G A30C, the self-cleavage was 0.16.

With A4G C21G, the self-cleavage amounted to 0.0683.

Take G24U G43U: the self-cleavage amounted to 0.0757.

Regarding U12C A40U, the self-cleavage was determined as 0.144.

For the variant U6C A23G, the self-cleavage was determined as 0.0715.

On to G13U G16U, for which the self-cleavage came out at 0.253.

In the case of G28C U31C, the self-cleavage is 0.938.

U31G C46U: the self-cleavage worked out at 0.928.

A1U C14A: the self-cleavage stood at 0.0917.

For A4G G7U, the self-cleavage was 0.052.

As to A22U G45C, the self-cleavage is 0.401.

On to C26A A30U, for which the self-cleavage amounted to 0.542.

Consider G28U A32C, for which the self-cleavage stood at 0.716.

As to G28U A32U, the self-cleavage worked out at 0.873.

Consider A10U G41C, for which the self-cleavage was found to be 0.239.

Turning to C27A C46A, the self-cleavage stood at 0.416.

With C26G G39C, the self-cleavage amounted to 0.119.

On to C5U C25U, for which the self-cleavage came out at 0.507.

Regarding C5U C25G, the self-cleavage was found to be 0.149.

Regarding C19U A33G, the self-cleavage is 0.889.

As to G45C G48U, the self-cleavage worked out at 0.577.

Take A1G G7C: the self-cleavage was determined as 0.0808.

In the case of A11U C15A, the self-cleavage was determined as 0.62.

Turning to A22C A33G, the self-cleavage stood at 0.802.

C5U C9U: the self-cleavage stood at 0.337.

On to A10C U18A, for which the self-cleavage worked out at 0.455.

On to G44C G47A, for which the self-cleavage amounted to 0.371.

For the variant A2G C8G, the self-cleavage was 0.0347.

U6G G36A: the self-cleavage turned out to be 0.0942.

With C3U C21A, the self-cleavage is 0.0567.

Consider U6A G7A, for which the self-cleavage was 0.224.

Consider G7U G45C, for which the self-cleavage turned out to be 0.118.

U6G G13A: the self-cleavage turned out to be 0.086.

With C9A U12G, the self-cleavage was determined as 0.417.

As for A30U G45C, the self-cleavage was 0.661.

U12A G45A: the self-cleavage worked out at 1.09.

Take G16C U37G: the self-cleavage was 0.134.

Consider G7U U37G, for which the self-cleavage worked out at 0.0777.

Regarding A1C G17C, the self-cleavage was 0.145.

As to C5G A10C, the self-cleavage was found to be 0.768.

Take G16C C20U: the self-cleavage came to 0.489.

Regarding G28A G47C, the self-cleavage turned out to be 0.283.

On to A32C A33G, for which the self-cleavage is 0.945.

For U37C G38A, the self-cleavage is 0.166.

With A2G C19U, the self-cleavage was found to be 0.155.

U12C A35U: the self-cleavage was 0.91.

For the variant C9A C21A, the self-cleavage turned out to be 0.0865.

For the variant U31A A40U, the self-cleavage is 0.136.

As for C19G A40G, the self-cleavage is 0.135.

With G28C G39C, the self-cleavage was found to be 0.159.

A1G G16U: the self-cleavage is 0.726.

Take C26A G47C: the self-cleavage was 0.2.

As for C3U C46A, the self-cleavage amounted to 0.338.

On to A23C G43U, for which the self-cleavage came to 0.109.

For the variant A10U G39U, the self-cleavage came to 0.215.

On to C3A G38C, for which the self-cleavage is 0.297.

On to C15U A35C, for which the self-cleavage amounted to 0.863.

Regarding A22C A34C, the self-cleavage is 0.169.

For U6C A40U, the self-cleavage is 0.119.

With C3U C27G, the self-cleavage was 0.0437.

C5A A11C: the self-cleavage was 0.169.

In the case of C9U C15G, the self-cleavage was determined as 0.0427.

Consider A10G G36C, for which the self-cleavage worked out at 0.855.

On to C5A A32C, for which the self-cleavage was found to be 0.413.

Regarding C15G G17U, the self-cleavage was 0.319.

Consider U12G A32G, for which the self-cleavage amounted to 0.914.

Take A4G A11G: the self-cleavage was 0.96.

On to A23U A35U, for which the self-cleavage came to 0.614.

For A1G C19G, the self-cleavage came out at 0.202.

As for G7A G48A, the self-cleavage worked out at 0.26.

Turning to U6A C8G, the self-cleavage came to 0.106.

In the case of G28C C46U, the self-cleavage amounted to 0.841.

As for C19G G47A, the self-cleavage is 0.105.

For the variant C8G G36U, the self-cleavage was 0.11.

As for U18A A32U, the self-cleavage worked out at 0.632.

In the case of U6C A30G, the self-cleavage was 0.477.

Take G44C G45U: the self-cleavage turned out to be 0.483.

C5A C14U: the self-cleavage worked out at 0.668.

As to C15U G36C, the self-cleavage was determined as 0.204.
